Data published in patent publication US20250011430A1.
Changes are numbered by the printed parent chain.

T1: B7H3 on cells (B7H3 on HEK293 cells; B7H3 expressed from plasmid on HEK-293T and QT6 cells) (human) (UniProt Q5ZPR3)
T1 sequence (looked up): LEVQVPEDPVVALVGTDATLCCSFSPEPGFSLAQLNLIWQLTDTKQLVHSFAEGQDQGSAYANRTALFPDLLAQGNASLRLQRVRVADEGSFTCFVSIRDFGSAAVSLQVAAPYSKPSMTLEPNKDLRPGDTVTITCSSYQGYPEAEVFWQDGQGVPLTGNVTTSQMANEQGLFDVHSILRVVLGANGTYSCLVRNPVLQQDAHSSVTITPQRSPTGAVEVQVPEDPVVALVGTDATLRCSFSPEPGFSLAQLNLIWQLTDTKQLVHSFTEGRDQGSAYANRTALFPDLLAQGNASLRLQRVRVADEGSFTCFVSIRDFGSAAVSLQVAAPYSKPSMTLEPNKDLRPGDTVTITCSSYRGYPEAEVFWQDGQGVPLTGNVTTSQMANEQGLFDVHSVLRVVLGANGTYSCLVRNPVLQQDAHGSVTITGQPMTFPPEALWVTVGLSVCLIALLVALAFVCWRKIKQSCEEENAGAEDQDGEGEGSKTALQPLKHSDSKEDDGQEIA

B1: huM30 (antibody, from another filing, V domains shown)
VH: QVQLVQSGAEVKKPGSSVKVSCKASGYTFTNYVMHWVRQAPGQGLEWMGYINPYNDDVKYNEKFKGRVTITADESTSTAYMELSSLRSEDTAVYYCARWGYYGSPLYYFDYWGQGTLVTVSS
VL: EIVLTQSPATLSLSPGERATLSCRASSRLIYMHWYQQKPGQAPRPLIYATSNLASGIPARFSGSGSGTDFTLTISSLEPEDFAVYYCQQWNSNPPTFGQGTKVEIK
B2: anti-B7H3 antibody 26B6 (antibody, V domains shown)
VH: EVQLQQSGPELVKPGASVKISCKTSGYAFTEYTMHWVKQSQGKSLEWIGGINPNTGGTTYNQKFNGKATLTVDRSSSTAYMELRSLTSEDSAVYYCTRPYRDDGGFHWYFDVWGAGTAVTVSS
VL: QIVLTQSPAVMSTSPGEKVTMTCSASSSVSYMQWYQQKSGTSPKRWIYDTSKLTSGVPARFSGSGSGTSYSLTISSMEAEDAATYYCQQWSSNPLTFGAGTKLELKR
B3: anti-B7H3 antibody 23H1 (antibody, V domains shown)
VH: EVKLVESGGGLVQPGGSLRLSCATSGFTFTDYYMSWVRQPPGKALEWLGFIRNKVNDYTTEYSVSVKGRFTISRDNSQTILYLQMNTLRAEDSATYYCARDSPYRPFAYWGQGTLVTVSA
VL: DIVMTQSPSSLTVTAGENVTMSCKSSQTLLNNGNQKNFLTWYQQKPGQPPKLLIYLASTRESGVPDRFTGSGSGTDFTLTISSVQAEDLAVYYCQNDYTYPLTFGAGTKLELKR
B4: anti-B7H3 antibody 6F7 (antibody, V domains shown)
VH: B3 VH with V55A, D57G, V64A, R74S, N76D, T79S, P103H
VL: B3 VL with V3Q, N18K, T28S, N32S, K36N, F38Y, E61D
B5: anti-B7H3 antibody 2B8 (antibody, V domains shown)
VH: QVQLQQSGPELVRPGVSVKISCKVSGYTFTDGAMHWVKRSHAKSLEWIGIINTNSGNTNYNQKFQGKATMTVDKSSSTAYMELARLTSEDSAIYYCARGVFYYGYGAWFAYWGQGTLVTVSA
VL: DVQITQSPSYLTASPGETIIINCRASKTISNYLAWYQEKPGKTNKLLIYSGSTLQSGIPSRFSGSGSDTDFTLTISSLEPEDFAMYYCQQHHEYPLTFGAGTKLELKR
B6: humanized 6F7 with light chain variable region LV1 (antibody, V domains shown)
VH: EVQLVESGGGLVQPGGSLRLSCAASGFTFTDYYMSWVRQAPGKGLEWVAFIRNKANGYTTEYSASVKGRFTISRDDSKNSLYLQMNSLRAEDTAVYYCARDSHYRPFAYWGQGTLVTVSS
VL: DIVMTQSPLSLPVTPGEPASISCKSSQSLLNSGNQNNYLTWYLQKPGQSPQLLIYLASTRDSGVPDRFSGSGSGTDFTLKISRVEAEDVGVYYCQNDYTYPLTFGGGTKVEIKR
B7: humanized 6F7 with light chain variable region LV2 (antibody, V domains shown)
VH: B6 VH
VL: DIVMTQSPDSLAVSLGERATINCKSSQSLLNSGNQNNYLTWYQQKPGQPPKLLIYLASTRDSGVPDRFSGSGSGTDFTLTISSLQAEDVAVYYCQNDYTYPLTFGGGTKVEIKR
B8: humanized 26B6 (antibody, V domains shown)
VH: EVQLVQSGAEVKKPGASVKVSCKASGYTFTEYTMHWVRQAPGQGLEWIGGINPNTGGTTYNQKFNGRVTMTRDTSISTAYMELSSLRSEDTAVYYCTRPYRDDGGFHWYFDVWGQGTLVTVSS
VL: EIVLTQSPATLSLSPGERATLSCSASSSVSYMQWYQQKPGLAPRLLIYDTSKLTSGIPDRFSGSGSGTDFTLTISRLEPEDFAVYYCQQWSSNPLTFGGGTKVEIKR

These binders were tested against human B7H3 ECD-His (human) (UniProt Q5ZPR3) (assay: ForteBio BLI, antibody on AHQ sensor, 60 nM antigen, 1:1 model).

Row | Kd [pM] | Binder
1 | 346 | B1
2 | 435 | B2
3 | 685 | B3
4 | 537 | B4
5 | 323 | B5

Each binder was assayed against T1, B7H3 on cells (B7H3 on HEK293 cells; B7H3 expressed from plasmid on HEK-293T and QT6 cells) (human) (assay: flow cytometry on HEK293 cells).

Row | Binder | EC50 [µg/mL]
6 | B1 | 0.0974

What follows are binders tested against human B7H3 ECD-His (human) (UniProt Q5ZPR3) (assay: ForteBio BLI).

Row | Kd [pM] | Binder
7 | 277 | B1
8 | 37000 | B6
9 | 14200 | B7
10 | 753 | B8
